{
  "source": "paper PMC7835349",
  "about": "(Communications Biology, 2021)",
  "key": {"telemetered rats": {"system": "telemetered rats", "assay": "Conscious rat telemetry (QRS amplitude, blood pressure, tolerability);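 further: male Han Wistar rats carrying implanted telemetry transmitters, with ECG and arterial pressure recorded continuously while unrestrained in their home cage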", "conditions": "telemetered rat; AZD4320 10 mg/kg, conjugates 30 mg/kg IV", "text": "Male Han Wistar rats were implanted with HD‐S11 transmitters (Data Sciences International, St. Paul, MN USA) under isoflurane anaesthesia, the telemetry transmitter was placed in the peritoneal cavity, the arterial blood pressure catheter was placed in the terminal abdominal aorta and the ECG electrodes were sutured, one at the dorsal surface of the xiphoid process and one at the anterior mediastinum, close to the right atrium[42]. Animals were allowed to recover for at least 2 weeks and were around 2–3 months at the time of experimentation. The animals were pair‐housed in standard rat cages with a non‐instrumented companion throughout the study. Cages were prepared with bedding material and enrichment.\nTelemetry recordings took place in the home cage. […] The animals were removed from the cage temporarily for dosing and blood sampling. Animals were not subject to restraint except where dosing and blood sampling was performed. Data acquisition used Dataquest Open A.R.T.™ with HEM software version 4.2 (Notocord Inc).\nFor evaluation of AZD4320, n = 8 rats received single doses of 0 (vehicle: 30% Kleptose, pH9) or 10 mg/kg AZD4320, administered as a 30-min intravenous infusion. A cross-over study design was used, with an interval of 7 days between treatments.\nData for all parameters were collected continuously during the recording period. The continuous data from each animal was binned into chosen time intervals of varying length and averaged to generate a single data point for each reported nominal time. Each reported nominal timepoint was then averaged across each of the animals tested for each dose level."}, "telemetered dogs": {"system": "telemetered dogs", "conditions": "dog, in vivo, 60 mg/kg"}, "[1]": {"assay": "Body weight and tolerability in RS4;11 xenograft mice", "format": "in vivo, C.B-17 SCID mouse", "conditions": "for Percentage Body Weight Change post Dosing: single animals", "protocol": "Female C.B.−17 SCID mice were purchased from Charles River Laboratories. Mice were 5–8 weeks old at the time of tumour implantation. All xenograft studies were conducted at our Association for the Assessment and Accreditation of Laboratory Animal Care accredited facility in Waltham, MA in accordance with ethical regulations described in the guidelines established by the internal Institutional Animal Care and Use Committee. The dendrimer conjugates were formulated in citrate/phosphate buffer pH 5.0, diluted 1:10 with 5% glucose containing 1% w/v Kolliphor HS15, and AZD4320 was formulated in 30% HP-β-CD and dosed as a weekly intravenous (IV) administration at a volume of 5 ml/kg at the indicated doses. Five million RS4;11, five million SUDHL-4 or five million OCI-LY-10 cells were injected subcutaneously in the right flank of mice in a volume of 0.1 ml. Tumour volumes (measured by caliper), animal body weight, and tumor condition were recorded twice weekly for the duration of the study. The tumour volume was calculated (taking length to be the longest diameter across the tumour and width to be the corresponding perpendicular diameter) using the formula: length (mm) x width (mm)^2/0.52. For efficacy studies, mice were randomized based on tumour volumes using stratified sampling and enrolled into control and treatment groups. Tumour growth inhibition from the start of treatment was quantified by measuring the difference in tumour volume between control and treated groups. Survival analysis was evaluated using Mantel-Cox test. Tumours were also taken for bioanalysis. […]\nSupplementary Figure 13. Percent total body weight change in mouse RS4;11 xenograft model (n=6). Percent change in body weight of mice measured twice weekly after start of treatment with various doses of AZD0466. […]"}},
  "note": "Several values for one entry are separate records, joined by “and”; a condition that tells them apart may be missing. Equal entries are not always repeated. Entries after “also recorded” stand apart in the source; their conditions may differ.",
  "data": [
    {"substance": "AZD4320-MIDA-PEG2100 [AZD0466]", "values": [
      {"measurement": "effect on QRS amplitude", "setting": "telemetered rats", "result": "no effect on QRS amplitude; also recorded: no reduction in QRS amplitude; also recorded: negligible effect on QRS amplitude"},
      {"measurement": "adverse clinical signs", "setting": "telemetered dogs", "result": "not associated with any adverse clinical signs"},
      {"measurement": "Percentage Body Weight Change post Dosing", "setting": "[1]; 10 mg/kg (3mg/kg AZD4320), day 41 post implant", "result": 0, "unit": "%"},
      {"measurement": "Percentage Body Weight Change post Dosing", "setting": "[1]; 10 mg/kg (3mg/kg AZD4320), day 44 post implant", "result": "-1.896% and 0% and -3.365% and -4.5045% and -0.9756% and 0.4739%"},
      {"measurement": "Percentage Body Weight Change post Dosing", "setting": "[1]; 10 mg/kg (3mg/kg AZD4320), day 48 post implant", "result": "2.37% and 2.899% and -4.327% and 0% (2×) and -0.9479%"},
      {"measurement": "Percentage Body Weight Change post Dosing", "setting": "[1]; 10 mg/kg (3mg/kg AZD4320), day 51 post implant", "result": "-2.8436% and -2.415% and -3.365% and -4.054% and -0.9756% and -3.318%"},
      {"measurement": "Percentage Body Weight Change post Dosing", "setting": "[1]; 10 mg/kg (3mg/kg AZD4320), day 55 post implant", "result": "1.4218% and 2.415% and -1.923% and 0.9009% and 1.951% and 0.4739%"},
      {"measurement": "Percentage Body Weight Change post Dosing", "setting": "[1]; 10 mg/kg (3mg/kg AZD4320), day 58 post implant", "result": "-0.9479% and -0.4831% and -2.885% and 0% and 2.927% and 0.4739%"},
      {"measurement": "Percentage Body Weight Change post Dosing", "setting": "[1]; 10 mg/kg (3mg/kg AZD4320), day 63 post implant", "result": "5.6872% and 4.831% and -0.9615% and 3.6036% and 7.317% and 2.8436%"},
      {"measurement": "Percentage Body Weight Change post Dosing", "setting": "[1]; 10 mg/kg (3mg/kg AZD4320), day 66 post implant", "result": "4.2654% and 2.415% and -4.327% and 0.4505% and 3.415% and -1.4218%"},
      {"measurement": "Percentage Body Weight Change post Dosing", "setting": "[1]; 10 mg/kg (3mg/kg AZD4320), day 70 post implant", "result": "2.8436% and 1.449% and -1.923% and 3.153% and 5.366% and 0.9479%"},
      {"measurement": "Percentage Body Weight Change post Dosing", "setting": "[1]; 10 mg/kg (3mg/kg AZD4320), day 73 post implant", "result": "3.318% and 7.246% and -1.442% and 1.8018% and 6.829% and 0%"},
      {"measurement": "Percentage Body Weight Change post Dosing", "setting": "[1]; 10 mg/kg (3mg/kg AZD4320), day 77 post implant", "result": "3.791% and 4.348% and -2.404% and 2.7027% and 5.854% and 0%"},
      {"measurement": "Percentage Body Weight Change post Dosing", "setting": "[1]; 10 mg/kg (3mg/kg AZD4320), day 80 post implant", "result": "7.109% and 6.763% and 2.404% and 9.268% and 2.8436%"},
      {"measurement": "Percentage Body Weight Change post Dosing", "setting": "[1]; 10 mg/kg (3mg/kg AZD4320), day 83 post implant", "result": "6.635% and 1.932% and 1.923% and 8.78% and 1.4218%"},
      {"measurement": "Percentage Body Weight Change post Dosing", "setting": "[1]; 34 mg/kg (10mg/kg AZD4320), day 41 post implant", "result": 0, "unit": "%"},
      {"measurement": "Percentage Body Weight Change post Dosing", "setting": "[1]; 34 mg/kg (10mg/kg AZD4320), day 44 post implant", "result": "-0.9346% and -3.922% and -3.6036% and -0.5155% and -2.427% and -2.913%"},
      {"measurement": "Percentage Body Weight Change post Dosing", "setting": "[1]; 34 mg/kg (10mg/kg AZD4320), day 48 post implant", "result": "-2.336% and -1.471% and -2.252% and -1.546% and 0% and -1.456%"},
      {"measurement": "Percentage Body Weight Change post Dosing", "setting": "[1]; 34 mg/kg (10mg/kg AZD4320), day 51 post implant", "result": "-2.804% and -6.373% and -5.405% and -1.031% and -4.369% and -1.942%"},
      {"measurement": "Percentage Body Weight Change post Dosing", "setting": "[1]; 34 mg/kg (10mg/kg AZD4320), day 55 post implant", "result": "-1.869% and -0.4902% and -2.252% and 1.031% and -1.942% and -0.9709%"},
      {"measurement": "Percentage Body Weight Change post Dosing", "setting": "[1]; 34 mg/kg (10mg/kg AZD4320), day 58 post implant", "result": "-1.402% and -3.431% and -3.153% and 1.546% and -2.913% and -0.9709%"},
      {"measurement": "Percentage Body Weight Change post Dosing", "setting": "[1]; 34 mg/kg (10mg/kg AZD4320), day 63 post implant", "result": "2.336% and -2.451% and 0% and 5.361% and 1.942% and 6.311%"},
      {"measurement": "Percentage Body Weight Change post Dosing", "setting": "[1]; 34 mg/kg (10mg/kg AZD4320), day 66 post implant", "result": "-2.336% and -4.412% and 0% and 1.031% and 1.456% and 6.796%"},
      {"measurement": "Percentage Body Weight Change post Dosing", "setting": "[1]; 34 mg/kg (10mg/kg AZD4320), day 70 post implant", "result": "-0.9346% and -5.392% and 0.4505% and 2.062% and 2.913% and 2.427%"},
      {"measurement": "Percentage Body Weight Change post Dosing", "setting": "[1]; 34 mg/kg (10mg/kg AZD4320), day 73 post implant", "result": "2.336% and -3.431% and 2.252% and 1.546% and 3.883% and 3.398%"},
      {"measurement": "Percentage Body Weight Change post Dosing", "setting": "[1]; 34 mg/kg (10mg/kg AZD4320), day 77 post implant", "result": "3.271% and -3.922% and 1.351% and 3.093% and 2.913% and 2.427%"},
      {"measurement": "Percentage Body Weight Change post Dosing", "setting": "[1]; 34 mg/kg (10mg/kg AZD4320), day 80 post implant", "result": "4.6729% and -1.471% and 7.207% and 5.155% and 3.883% and 6.796%"},
      {"measurement": "Percentage Body Weight Change post Dosing", "setting": "[1]; 34 mg/kg (10mg/kg AZD4320), day 83 post implant", "result": "4.206% and -1.961% and 7.658% and 4.639% and 4.854% and 9.709%"},
      {"measurement": "Percentage Body Weight Change post Dosing", "setting": "[1]; 103 mg/kg (30mg/kg AZD4320), day 41 post implant", "result": 0, "unit": "%"},
      {"measurement": "Percentage Body Weight Change post Dosing", "setting": "[1]; 103 mg/kg (30mg/kg AZD4320), day 44 post implant", "result": "-2.415% and -9.211% and -6.161% and -5.804% and 0% and -2%"},
      {"measurement": "Percentage Body Weight Change post Dosing", "setting": "[1]; 103 mg/kg (30mg/kg AZD4320), day 48 post implant", "result": "-0.9662% and -3.509% and -6.161% and -4.464% and -1.415% and -2.5%"},
      {"measurement": "Percentage Body Weight Change post Dosing", "setting": "[1]; 103 mg/kg (30mg/kg AZD4320), day 51 post implant", "result": "-1.449% and -4.386% and -7.109% and -5.357% and -2.83% and -4%"},
      {"measurement": "Percentage Body Weight Change post Dosing", "setting": "[1]; 103 mg/kg (30mg/kg AZD4320), day 55 post implant", "result": "0.4831% and -0.4386% and -5.213% and -3.125% and 0% and -3.5%"},
      {"measurement": "Percentage Body Weight Change post Dosing", "setting": "[1]; 103 mg/kg (30mg/kg AZD4320), day 58 post implant", "result": "-0.9662% and -1.754% and -5.213% and -4.464% and -0.9434% and -5.5%"},
      {"measurement": "Percentage Body Weight Change post Dosing", "setting": "[1]; 103 mg/kg (30mg/kg AZD4320), day 63 post implant", "result": "0.4831% and 1.842% and -3.791% and -2.232% and -1.887% and -2%"},
      {"measurement": "Percentage Body Weight Change post Dosing", "setting": "[1]; 103 mg/kg (30mg/kg AZD4320), day 66 post implant", "result": "-1.932% and -0.4386% and -4.2654% and -2.679% and -0.9434% and -2.5%"},
      {"measurement": "Percentage Body Weight Change post Dosing", "setting": "[1]; 103 mg/kg (30mg/kg AZD4320), day 70 post implant", "result": "-1.449% and 0.4386% and -3.318% and -1.786% and -0.9434% and -8%"},
      {"measurement": "Percentage Body Weight Change post Dosing", "setting": "[1]; 103 mg/kg (30mg/kg AZD4320), day 73 post implant", "result": "0.4831% and 1.316% and -1.896% and -4.018% and -2.83% and -4%"},
      {"measurement": "Percentage Body Weight Change post Dosing", "setting": "[1]; 103 mg/kg (30mg/kg AZD4320), day 77 post implant", "result": "0.4831% and 1.316% and 0% (2×) and -2.679% and -4%"},
      {"measurement": "Percentage Body Weight Change post Dosing", "setting": "[1]; 103 mg/kg (30mg/kg AZD4320), day 80 post implant", "result": "4.348% and 1.754% and 2.8436% and -1.786% and 0.4717% and -3%"},
      {"measurement": "Percentage Body Weight Change post Dosing", "setting": "[1]; 103 mg/kg (30mg/kg AZD4320), day 83 post implant", "result": "2.415% and 3.509% and 4.2654% and -2.232% and 0.4717% and -2%"},
      {"measurement": "tolerability in xenograft mice", "setting": "[1]; RS4;11 xenograft, all doses", "result": "well tolerated"}
    ]}
  ]
}
